{"source": "the nanobody polyreactivity screen of Harvey et al. (2022)", "data": [{"experiment": "yeast display, Sf9 membrane polyspecificity reagent, FACS + sequencing; frameworks hold sequencing errors", "outline": "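Using colony PCR, genes from sorted yeast display clones were amplified, then sequenced on MiSeq at 2 × 250 and filtered by CDR length. The clones had been stained with 10% biotinylated, detergent-solubilized Sf9 membrane reagent for 1 hour at 4 °C and sorted by FACS into low and high (top ~1%) gates on anti-HA and streptavidin fluorescence. Polyreactivity labels come from the gate of origin.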", "values": [{"sequence": "QVQLVESGGGLLQAGGSLRLSCAASGRTFRYYAMGWYRQAPGKERELVAAISSGGSSTYYADSVKGRFTISRDNAKNTVYLQMNSLKPEDTAVYYCAAGYYPFNYWGQGTQVTVSS", "polyreactivity (PSR sort gate)": "high polyreactivity"}, {"sequence": "QVQLVESGGGLVQAGGSLRLSCAASGSIFWRNAMGWYRQAQGKEREFVATITWSGDSTYYADSVKGRFTISRDNAKNTVYLQMNSLKPEDTAVYYCATDWRNWGYDSWGQGTQVTVSS", "polyreactivity (PSR sort gate)": "low polyreactivity"}, {"sequence": "QVQLVESGGGLVQAGGSLRLSCAASGSTIYDNAMGWYRQAPGKERELVAAITWSVGRTYYADSVKGRFTISRDNAKNTVYLQMNSLKPEDTAVYYCAARSQDRSYFQVFVSDTPYNYWGQGTQVTVSS", "polyreactivity (PSR sort gate)": "low polyreactivity"}, {"sequence": "QVQLVESGGGLVQAGGSLRLSCAASGFIFYSYAMGWYRQAPGKEREFVAAISRGGGRTYYADSVKGRFTISRDNAKNTVYLHMYSLKQEDTAVFYCATLPNGPHWPEYDYWGQGTQVTVSS", "polyreactivity (PSR sort gate)": "high polyreactivity"}, {"sequence": "QVQLVESGGGLVQAGGSLRLSCAASGRIFRINAMGWYRQAPGKERELVASISRRGGNTYYADSVKGRFTISRDNAKNTVYLQMNSLKPEDTAVYYCAADTNLERTFDYWGQGTQVTVSS", "polyreactivity (PSR sort gate)": "low polyreactivity"}, {"sequence": "QVQLVESGGGLVQAGGRLRLSCAASGRTFGPNVMGWYRQAPGKERELVAAITSGGTTYYADSVKGRFTISRDNAKNTVYLQMTSLIPADTAVYYCAATFYPYQVHHYYYWGQGTQVTVSS", "polyreactivity (PSR sort gate)": "low polyreactivity"}, {"sequence": "QVQIVESGGGLVQAGGSLRLSCAASGIIFYNYAMGWYREAPGKERELVAAITGTGSRTYYADSVKGRFTISRDNAKNTVYLQMNSLNPEDTAVYYCAVNTRRYWYGYWGQGTQVTVSS", "polyreactivity (PSR sort gate)": "high polyreactivity"}, {"sequence": "QVQLVESGGGLDQAGGSLRLSSAASGLTFFSEYAMGLYRQPPGIERELVASIDWSGDSTYYADSVKGRFTISRDNAMKTVYLQMNSLKPEYTAVYYCAKDYSTEISQEYYYWVQGTQVTVSS", "polyreactivity (PSR sort gate)": "high polyreactivity"}, {"sequence": "QVQLVESGGGLVQAGGSLRLSCAASGLIFFTYAMGWYRQAPGKERELVAAITGRGGRTYYADSVKGRFTISRDNAKNTVYLQMNSLKPEDTAVYYCNAEYRYYQKTPGRYTNVEYDYWGQGTQVTVSS", "polyreactivity (PSR sort gate)": "low polyreactivity"}, {"sequence": "QVQLVESGGGLVQAGGSLRLSCAASGRIFYSYAMGWYRQAPGKERELVARISSGGSTNYADSVKGRFTISRDNAKNTVYLQMNSLKPEDTAVYYCAAATIWSGVHYGYWGQGTQVNVSS", "polyreactivity (PSR sort gate)": "low polyreactivity"}, {"sequence": "QVQLVESGGGLVQAGGSLRLSCAASGSIFQHYAMGWYRQAPGKVRELVAAISSDTTSTYYADSVKGRFTISRDNAKNTVYLQMHSLKPEDTAVYYCNTYPEVYGPFQYDYWGQGTQVTVSS", "polyreactivity (PSR sort gate)": "low polyreactivity"}, {"sequence": "QVQLVESGGGLVQAGGSLRLSCAASGRSFCSYAMGWYRHAPGKERELVAAITSGGSTNYADSVKGRFTISRDNAKNTVYLQMNSLKPEVTAVYYCAAVEYLRESDYWGQGTQVTVSS", "polyreactivity (PSR sort gate)": "low polyreactivity"}, {"sequence": "QVQLVESGGGLVQAGGSLRLSCAASGRTFRINAMGWYRQAPGKEREMVAAIRSRAGSTYYADSVKGRFTISRDNAKNTVYLQMYSLKPEDTAVYYCAAKFPFDVDYWGQGTQVTVSS", "polyreactivity (PSR sort gate)": "high polyreactivity"}, {"sequence": "QVQLVDSGGGLVQAGGSLRLRGAASGRIFFYYAMGWYRQAPGKERELLAAITYSVDSTYYADSVKGRFTISRDNAKNTVYLQMNSLKPEDTAVYYCAADDIHYVIHAYYSSGVDYWGQGTQVTVSS", "polyreactivity (PSR sort gate)": "low polyreactivity"}, {"sequence": "QVQLVESGGGLVQAGGSLRLSCAASGSTFYPYAMGWYRQAPGKERELVASITTDDGSTYYADSVKGRFTISRDNAKNTVYLQMNSLKPEDTAVYYCAARFRGFAVDWYPFRQGDYWGQGTQVTVSS", "polyreactivity (PSR sort gate)": "low polyreactivity"}, {"sequence": "QDQLVESGGGLVQAGGSLRLSCAASGRIFRGYAMGWYRQAHGKERELVAVISYSGTRTYYADSVKGRFTISRDNAKNTVYIQMNSLKPEDTAVYYCNARANGFKDGYWGEGTQVTVSS", "polyreactivity (PSR sort gate)": "high polyreactivity"}, {"sequence": "QVQLVESGGGLVQAGGSLRLSCAASGSIFSKYAMGWYRQAPGKERELVAAITSSGGSTYYADSVKGRFTISRDNAKNTVYLQMNSLKPEDNAVYYCAAGGRSVRYNYWGQGTQVTVSS", "polyreactivity (PSR sort gate)": "high polyreactivity"}]}]}
